B1: Speckle-type POZ protein (Homo sapiens), O43791 (parent)
chain: MSRVPSPPPPAEMSSGPVAESWCYTQIKVVKFSYMWTINNFSFCREEMGEVIKSSTFSSGANDKLKWCLRVNPKGLDEESKDYLSLYLLLVSCPKSEVRAKFKFSILNAKGEETKAMESQRAYRFVQGKDWGFKKFIRRDFLLDEANGLLPDDKLTLFCEVSVVQDSVNISGQNTMNMVKVPECRLADELGGLWENSRFTDCCLCVAGQEFQAHKAILAARSPVFSAMFEHEMEESKKNRVEINDVEPEVFKEMMCFIYTGKAPNLDKMADDLLAAADKYALERLKVMCEDALCSNLSVENAAEILILADLHSADQLKTQAVDFINYHASDVLETSGWKSMVVSHPHLVAEAYRSLASAQCPFLGPPRKRLKQS
partner: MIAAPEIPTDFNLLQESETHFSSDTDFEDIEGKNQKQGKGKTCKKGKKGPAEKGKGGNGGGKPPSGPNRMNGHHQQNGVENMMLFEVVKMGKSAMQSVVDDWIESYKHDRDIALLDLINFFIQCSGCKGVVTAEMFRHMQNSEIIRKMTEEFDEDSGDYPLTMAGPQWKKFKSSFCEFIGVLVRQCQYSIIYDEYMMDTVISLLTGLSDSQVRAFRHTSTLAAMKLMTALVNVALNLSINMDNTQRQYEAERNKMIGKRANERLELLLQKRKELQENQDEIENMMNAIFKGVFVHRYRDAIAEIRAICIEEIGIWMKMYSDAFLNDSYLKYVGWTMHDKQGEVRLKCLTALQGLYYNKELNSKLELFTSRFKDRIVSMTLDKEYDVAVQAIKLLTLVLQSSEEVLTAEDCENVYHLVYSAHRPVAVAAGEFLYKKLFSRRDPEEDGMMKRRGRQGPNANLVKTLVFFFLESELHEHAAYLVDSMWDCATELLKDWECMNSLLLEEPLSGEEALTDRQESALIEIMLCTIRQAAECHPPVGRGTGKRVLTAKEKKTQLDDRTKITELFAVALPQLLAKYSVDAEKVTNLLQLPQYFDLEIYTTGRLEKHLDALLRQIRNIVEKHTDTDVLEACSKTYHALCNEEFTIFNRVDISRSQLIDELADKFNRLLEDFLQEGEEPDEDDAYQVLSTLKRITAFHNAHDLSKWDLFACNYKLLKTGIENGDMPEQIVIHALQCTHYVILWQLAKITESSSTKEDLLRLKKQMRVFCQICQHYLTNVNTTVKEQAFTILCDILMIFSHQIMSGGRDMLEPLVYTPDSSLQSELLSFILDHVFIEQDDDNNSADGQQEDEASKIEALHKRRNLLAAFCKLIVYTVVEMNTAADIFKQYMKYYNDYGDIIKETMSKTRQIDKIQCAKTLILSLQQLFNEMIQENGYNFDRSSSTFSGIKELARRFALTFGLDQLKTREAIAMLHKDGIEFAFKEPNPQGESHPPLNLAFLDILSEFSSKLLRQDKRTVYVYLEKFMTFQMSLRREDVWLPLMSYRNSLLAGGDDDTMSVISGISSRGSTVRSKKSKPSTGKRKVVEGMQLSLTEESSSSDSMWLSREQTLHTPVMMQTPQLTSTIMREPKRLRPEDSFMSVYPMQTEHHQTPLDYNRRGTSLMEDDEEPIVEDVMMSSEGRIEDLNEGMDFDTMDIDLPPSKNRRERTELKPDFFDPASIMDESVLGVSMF
B2: Speckle-type POZ protein (Homo sapiens), O43791 (parent)
chain: B1 chain
partner: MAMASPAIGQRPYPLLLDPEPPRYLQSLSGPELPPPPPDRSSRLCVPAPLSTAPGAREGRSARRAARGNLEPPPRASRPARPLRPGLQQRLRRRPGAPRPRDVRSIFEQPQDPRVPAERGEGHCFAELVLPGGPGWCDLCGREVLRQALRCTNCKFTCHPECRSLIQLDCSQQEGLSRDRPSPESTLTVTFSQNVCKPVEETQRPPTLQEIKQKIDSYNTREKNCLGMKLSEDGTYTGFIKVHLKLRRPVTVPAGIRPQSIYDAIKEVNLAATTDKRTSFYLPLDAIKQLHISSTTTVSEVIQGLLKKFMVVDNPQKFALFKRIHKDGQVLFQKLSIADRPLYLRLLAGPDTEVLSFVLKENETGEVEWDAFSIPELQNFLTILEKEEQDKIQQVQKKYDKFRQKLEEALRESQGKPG
B3: Speckle-type POZ protein (Homo sapiens), O43791 (parent)
chain: B1 chain
partner: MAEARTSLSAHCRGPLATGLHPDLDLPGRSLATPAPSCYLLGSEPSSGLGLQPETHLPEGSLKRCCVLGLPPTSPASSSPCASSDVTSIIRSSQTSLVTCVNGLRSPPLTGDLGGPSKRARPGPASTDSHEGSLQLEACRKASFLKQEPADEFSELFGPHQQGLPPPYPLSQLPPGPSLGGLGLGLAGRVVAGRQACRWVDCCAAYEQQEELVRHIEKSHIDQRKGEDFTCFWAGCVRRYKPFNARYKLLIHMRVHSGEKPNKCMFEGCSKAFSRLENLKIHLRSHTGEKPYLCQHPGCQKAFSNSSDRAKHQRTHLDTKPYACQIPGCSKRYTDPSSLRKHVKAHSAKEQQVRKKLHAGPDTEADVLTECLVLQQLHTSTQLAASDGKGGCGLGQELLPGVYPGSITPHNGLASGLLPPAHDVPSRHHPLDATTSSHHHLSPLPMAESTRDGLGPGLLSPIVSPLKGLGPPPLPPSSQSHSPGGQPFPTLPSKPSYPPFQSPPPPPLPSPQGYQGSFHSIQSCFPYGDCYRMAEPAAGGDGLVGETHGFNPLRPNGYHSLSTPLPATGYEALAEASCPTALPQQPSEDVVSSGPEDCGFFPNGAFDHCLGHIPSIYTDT
B4: Speckle-type POZ protein (Homo sapiens), O43791 (parent)
chain: B1 chain
partner: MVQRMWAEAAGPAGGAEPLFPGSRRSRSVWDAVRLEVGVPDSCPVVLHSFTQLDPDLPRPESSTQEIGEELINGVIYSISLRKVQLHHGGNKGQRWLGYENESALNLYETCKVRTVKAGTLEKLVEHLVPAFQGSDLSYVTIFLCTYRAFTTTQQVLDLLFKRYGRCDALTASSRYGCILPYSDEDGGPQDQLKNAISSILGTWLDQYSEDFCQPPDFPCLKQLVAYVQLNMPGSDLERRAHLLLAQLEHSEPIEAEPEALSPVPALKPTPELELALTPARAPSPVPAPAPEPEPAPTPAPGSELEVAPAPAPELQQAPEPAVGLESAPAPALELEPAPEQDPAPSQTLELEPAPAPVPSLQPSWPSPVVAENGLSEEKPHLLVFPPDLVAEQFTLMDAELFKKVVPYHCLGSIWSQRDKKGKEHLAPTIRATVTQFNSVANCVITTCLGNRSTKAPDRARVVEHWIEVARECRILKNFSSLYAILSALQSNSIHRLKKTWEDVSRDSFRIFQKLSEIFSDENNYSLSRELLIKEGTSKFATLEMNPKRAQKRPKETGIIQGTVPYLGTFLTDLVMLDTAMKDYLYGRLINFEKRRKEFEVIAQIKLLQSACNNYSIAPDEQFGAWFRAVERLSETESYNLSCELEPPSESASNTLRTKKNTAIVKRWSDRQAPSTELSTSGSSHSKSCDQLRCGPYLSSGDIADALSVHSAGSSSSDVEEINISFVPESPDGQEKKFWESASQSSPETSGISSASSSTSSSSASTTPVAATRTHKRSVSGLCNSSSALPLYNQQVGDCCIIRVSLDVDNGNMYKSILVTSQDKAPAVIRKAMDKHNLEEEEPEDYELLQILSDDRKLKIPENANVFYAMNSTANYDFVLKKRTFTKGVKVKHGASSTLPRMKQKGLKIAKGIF

Variants of: B1
Settings: with stag2_human STAG2, Q8N3U4

Variant	effect of a mutation on the interaction
F102C	with no effect

Variants of: B1
Settings: with stag2_human STAG2, Q8N3U4
Remark: another data set of the same source

Variant	effect of a mutation on the interaction
F133V	with no effect

Variants of: B1
Settings: with stag2_human STAG2, Q8N3U4
Remark: another data set of the same source

Variant	effect of a mutation on the interaction
F133L	with no effect

Variants of: B2
Settings: with rasf5_human RASSF5, Q8WWW0

Variant	effect of a mutation on the interaction
Y87C	with no effect

Variants of: B2
Settings: with rasf5_human RASSF5, Q8WWW0
Remark: another data set of the same source

Variant	effect of a mutation on the interaction
F102C	with no effect

Variants of: B2
Settings: with rasf5_human RASSF5, Q8WWW0
Remark: another data set of the same source

Variant	effect of a mutation on the interaction
F133L	with no effect

Variants of: B2
Settings: with rasf5_human RASSF5, Q8WWW0
Remark: another data set of the same source

Variant	effect of a mutation on the interaction
F133V	with no effect

Variants of: B3
Settings: with glis1_human GLIS1, Q8NBF1

Variant	effect of a mutation on the interaction
Y87C	with no effect

Variants of: B3
Settings: with glis1_human GLIS1, Q8NBF1
Remark: another data set of the same source

Variant	effect of a mutation on the interaction
F133L	with no effect

Variants of: B4
Settings: with gnds_human RALGDS

Variant	effect of a mutation on the interaction
F133V	with no effect

Variants of: B4
Settings: with gnds_human RALGDS
Remark: another data set of the same source

Variant	effect of a mutation on the interaction
F133L	with no effect

— IntAct's records for PubMed 35512704
